Reference: patent US20160096882A1

Assays:
Assay in all cases: cell-based or functional assay
[1] = target: H5N1 Vietnam/1203/04 hemagglutinin (Influenza A virus H5N1 Vietnam/1203/04)
[2] = target: H1N1 New Caledonia/20/99 hemagglutinin (Influenza A virus H1N1 New Caledonia/20/99)
[3] = target: H3N2 Wisconsin/67/05 hemagglutinin (Influenza A virus H3N2 Wisconsin/67/05)

B1: 1286-A11 antibody (antibody, V domains shown)
VH: QVQLQQSGPRLVKPSQTLSLTCAISGDSVSGDSGTWNWIRQSPSRGLEWLGRTYYRSKWYNDYAESVKSRIVIKADTSKNEFSLQLNSVTPEDTAIYYCARAGVKIFGLIVGALDNWGRGTLVTVSS
VL: EIVMTQSPGTLSLSPGERATLSCRASQSVSSSYLAWYQQKPGQAPRLLIYGASTRATGVPDRFHGGGSGTDFTLTISRLEPEDFAVYYCQQYDTSSGLTFGGGTKVEIK
Neutralization MIC [1]: 333 µg/mL | Neutralization MIC [2]: 83 µg/mL | Neutralization MIC [3]: > 333 µg/mL
